Substitutions are numbered along the chain they refer to.

The target of assay [1] is T1, recombinant Notch2 (EGF1-12) Fc fusion protein (human).
T1 construct: passively immobilised for phage selection and ELISA screen; also called Notch2 Fc fusion protein
Put plainly: phage selection and ELISA screen on passively immobilized Notch2 (EGF1-12) Fc fusion. The method, then:
Briefly, 2×10¹³ Fab displaying phage particles were incubated with a passively immobilized, recombinant Notch2 Fc fusion protein (SEQ ID NO:21) comprising the extracellular ligand binding site of Notch2 and surrounding EGF repeats (EGF1-12) in round one. The non-specific phage were washed off, and then the specific phage were eluted with DTT. The eluted output was used to infect TG1 F+bacteria, rescued with helper phage, and then Fab display induced with IPTG (0.25 mM). This process was repeated for two additional rounds and then round three was screened in ELISA against passively immobilized recombinant Notch2 (EGF1-12) Fc fusion (5 μg/ml).
On the technique in general: ELISA stands for enzyme-linked immunosorbent assay.

Assay [2] addresses T2, human Notch1 with residues 382-386 mutated to the corresponding human Notch2 residues (385-389), full length, … (human, UniProt P46531 19-2555).
T2 construct: G384 is the same in both; also called mutant hNotch1; mutated Notch1
Description: FACS on transiently transfected HEK 293 cells. Here is the method:
FIG. 15. In vitro characterization of 59R5. […] PC3 tumor cells were transiently transfected with human or mouse Notch receptor (hN2, human Notch2; mN2, murine Notch2; hN3, human Notch3; mN3, murine Notch3) and GFP inducible reporter construct. Transfected cells were incubated with different concentrations of antibody 59R1 and 59R5 in the presence of passively immobilized DLL4 Fc. […] Cells were also co-transfected with a plasmid encoding green fluorescent protein (GFP) to mark those cells that received transfected plasmid. Cells were incubated with 59R1 or 59R5 and fluorescent secondary antibody and then examined by FACS.
The binding epitope of 59R5 was determined. As was described in Example 3 for analysis of antibody 59R1, several point mutants were created within full-length Notch1, converting residues within EGF10 to the corresponding amino acids in human Notch 2. Mutants in full-length Notch sequences were generated by QuikChange® mutagenesis (Stratagene) and verified by sequencing. […] Cells were also co-transfected with a plasmid encoding green fluorescent protein (GFP) to mark those cells that received transfected plasmid. Cells were incubated with 59R1 or 59R5 and fluorescent secondary antibody and then examined by FACS. 59R1 and 59R5 were detected by PE-conjugated goat anti-human Fc gamma specific antibody (Jackson Immunochemicals, #109-1,6-170).

T2 sequence (P46531 other isoform, or with tags, fused parts or gaps limits assumed, change not shown): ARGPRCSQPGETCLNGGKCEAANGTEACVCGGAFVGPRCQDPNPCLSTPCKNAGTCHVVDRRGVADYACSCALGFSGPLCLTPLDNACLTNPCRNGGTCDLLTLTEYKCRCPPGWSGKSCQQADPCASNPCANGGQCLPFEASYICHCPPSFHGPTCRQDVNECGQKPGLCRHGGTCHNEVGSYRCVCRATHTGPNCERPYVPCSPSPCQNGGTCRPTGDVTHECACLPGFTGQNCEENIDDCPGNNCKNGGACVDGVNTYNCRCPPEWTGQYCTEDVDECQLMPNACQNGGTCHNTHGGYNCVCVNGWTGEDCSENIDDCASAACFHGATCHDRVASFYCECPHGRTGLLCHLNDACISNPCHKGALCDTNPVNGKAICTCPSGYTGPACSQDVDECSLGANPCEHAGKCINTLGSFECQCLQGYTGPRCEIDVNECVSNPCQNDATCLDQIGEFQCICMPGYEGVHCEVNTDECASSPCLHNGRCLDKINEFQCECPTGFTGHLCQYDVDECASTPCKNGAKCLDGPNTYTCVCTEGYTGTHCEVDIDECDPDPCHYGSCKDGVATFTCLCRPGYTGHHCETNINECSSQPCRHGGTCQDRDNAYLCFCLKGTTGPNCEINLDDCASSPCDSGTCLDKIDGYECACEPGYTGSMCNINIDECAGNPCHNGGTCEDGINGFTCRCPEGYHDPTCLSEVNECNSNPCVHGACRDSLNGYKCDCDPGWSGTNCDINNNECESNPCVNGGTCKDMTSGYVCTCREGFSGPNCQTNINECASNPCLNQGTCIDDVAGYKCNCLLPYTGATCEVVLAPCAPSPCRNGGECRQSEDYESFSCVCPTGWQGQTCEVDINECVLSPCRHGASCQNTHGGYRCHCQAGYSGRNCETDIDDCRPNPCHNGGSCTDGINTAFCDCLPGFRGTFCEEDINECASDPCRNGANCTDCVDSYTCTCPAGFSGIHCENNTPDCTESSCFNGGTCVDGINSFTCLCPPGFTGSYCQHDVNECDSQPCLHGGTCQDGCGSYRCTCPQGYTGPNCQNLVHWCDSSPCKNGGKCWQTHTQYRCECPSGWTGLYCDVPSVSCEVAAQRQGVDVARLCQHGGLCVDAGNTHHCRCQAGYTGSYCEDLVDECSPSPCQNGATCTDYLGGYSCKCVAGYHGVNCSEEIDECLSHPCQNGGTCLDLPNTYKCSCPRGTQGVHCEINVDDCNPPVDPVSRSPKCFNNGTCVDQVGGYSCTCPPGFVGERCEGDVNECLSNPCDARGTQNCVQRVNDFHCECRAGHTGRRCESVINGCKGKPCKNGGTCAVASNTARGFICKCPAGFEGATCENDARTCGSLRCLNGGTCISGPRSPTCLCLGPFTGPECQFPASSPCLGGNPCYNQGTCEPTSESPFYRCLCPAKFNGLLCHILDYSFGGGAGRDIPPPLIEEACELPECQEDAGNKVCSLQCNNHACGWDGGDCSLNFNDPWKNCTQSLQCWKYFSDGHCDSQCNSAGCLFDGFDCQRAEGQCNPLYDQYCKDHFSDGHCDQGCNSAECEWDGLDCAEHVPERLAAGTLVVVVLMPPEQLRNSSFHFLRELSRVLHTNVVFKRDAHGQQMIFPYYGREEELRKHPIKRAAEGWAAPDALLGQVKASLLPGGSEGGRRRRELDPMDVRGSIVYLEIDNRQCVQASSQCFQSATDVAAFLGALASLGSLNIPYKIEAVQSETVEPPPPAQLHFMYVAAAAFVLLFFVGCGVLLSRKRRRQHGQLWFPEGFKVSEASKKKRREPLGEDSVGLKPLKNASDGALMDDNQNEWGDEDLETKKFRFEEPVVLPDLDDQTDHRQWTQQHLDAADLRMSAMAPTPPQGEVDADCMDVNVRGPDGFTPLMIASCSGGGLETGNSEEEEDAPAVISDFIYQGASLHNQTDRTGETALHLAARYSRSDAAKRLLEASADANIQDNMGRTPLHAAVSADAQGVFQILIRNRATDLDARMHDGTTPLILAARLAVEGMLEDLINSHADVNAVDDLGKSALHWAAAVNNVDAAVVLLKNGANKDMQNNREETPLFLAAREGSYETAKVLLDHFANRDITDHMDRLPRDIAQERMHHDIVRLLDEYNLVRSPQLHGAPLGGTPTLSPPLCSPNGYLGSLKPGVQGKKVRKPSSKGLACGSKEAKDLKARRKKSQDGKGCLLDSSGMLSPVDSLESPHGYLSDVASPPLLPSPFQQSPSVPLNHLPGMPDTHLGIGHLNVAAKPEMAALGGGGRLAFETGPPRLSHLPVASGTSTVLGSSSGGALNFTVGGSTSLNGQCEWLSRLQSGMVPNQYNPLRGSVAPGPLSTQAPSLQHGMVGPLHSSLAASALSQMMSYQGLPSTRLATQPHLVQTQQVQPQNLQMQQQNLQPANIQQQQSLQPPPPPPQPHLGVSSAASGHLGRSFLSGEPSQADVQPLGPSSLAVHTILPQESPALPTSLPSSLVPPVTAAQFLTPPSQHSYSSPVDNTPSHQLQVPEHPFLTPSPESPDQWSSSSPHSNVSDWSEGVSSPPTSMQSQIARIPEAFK
T1 sequence (chain, as listed by the source limits assumed): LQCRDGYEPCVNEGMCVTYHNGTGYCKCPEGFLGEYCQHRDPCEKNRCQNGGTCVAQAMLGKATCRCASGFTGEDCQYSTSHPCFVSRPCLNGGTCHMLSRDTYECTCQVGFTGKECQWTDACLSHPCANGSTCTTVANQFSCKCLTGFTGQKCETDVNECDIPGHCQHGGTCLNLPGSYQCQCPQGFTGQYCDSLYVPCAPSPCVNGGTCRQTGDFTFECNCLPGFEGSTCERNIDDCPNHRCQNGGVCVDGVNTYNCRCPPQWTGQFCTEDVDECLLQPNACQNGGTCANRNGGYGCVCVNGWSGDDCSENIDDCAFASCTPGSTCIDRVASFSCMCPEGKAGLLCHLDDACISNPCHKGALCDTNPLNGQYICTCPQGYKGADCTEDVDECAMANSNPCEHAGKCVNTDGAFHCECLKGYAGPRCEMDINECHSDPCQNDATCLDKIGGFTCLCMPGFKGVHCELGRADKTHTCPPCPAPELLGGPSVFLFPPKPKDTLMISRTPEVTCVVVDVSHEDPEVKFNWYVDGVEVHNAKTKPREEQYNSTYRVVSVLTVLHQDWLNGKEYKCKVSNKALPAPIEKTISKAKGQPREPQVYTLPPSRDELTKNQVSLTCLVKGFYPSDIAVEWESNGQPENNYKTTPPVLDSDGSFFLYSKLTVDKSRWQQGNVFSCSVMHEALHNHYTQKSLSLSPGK

B1: 59R1 Fab (Fab, V domains shown)
VH: QVQLVESGGGLVQPGGSLRLSCAASGFTFSSSGMSWVRQAPGKGLEWVSVIASSGSNTYYADSVKGRFTISRDNSKNTLYLQMNSLRAEDTAVYYCARGIFFAIWGQGTLVTVSS
VL: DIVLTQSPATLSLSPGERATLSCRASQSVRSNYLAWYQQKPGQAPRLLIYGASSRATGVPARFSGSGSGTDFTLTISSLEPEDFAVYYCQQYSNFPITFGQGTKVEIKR
notes: Human Fab from a synthetic phage library; also called Clone 1; clone 1
In the case of B1, the binding result in assay [1] is listed as “binds”.

B2: 59R5 antibody (antibody, human IgG2, kappa, V domains shown)
VH: B1 VH with Q1E, G99S, F102Y, A103T, I104T
VL: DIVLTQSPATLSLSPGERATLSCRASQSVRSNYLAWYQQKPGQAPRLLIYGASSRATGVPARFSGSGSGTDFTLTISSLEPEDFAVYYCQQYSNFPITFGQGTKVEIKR
notes: also called anti-Notch2/3 antibody 59R5; 59R5 IgG2
Consider B2, for which the binding result in assay [2] is “binds”.

These data come from patent publication US20100111958A1 (published 2010).
